{"source": "patent US12227570B2", "about": "“Anti-CEACAM6 antibodies and methods of use” (Singapore Health Services PTE LTD, priority 2016, dated 2025)", "molecules": {"B1": {"name": "GR6A04: mouse IgG1, κ anti-CEACAM6 monoclonal antibody, VH SEQ ID NO:1, VL SEQ ID NO:2, binds N-glycosylated CEACAM6 (antibody, V domains shown)", "VH": "SGPELVKPGASVKMSCKASGNTFTSYVMHWVKQKPGQGLEWIGYINPYNDGTKYNEKFKGKATLTSDKSSSTAYMELSSLTSEDSAVYYCARSTARATPYFYAMDYWGQGTSVTVSS", "VL": "DILMTQSPSSLAVTAGEKVTMRCKSSQSLLWSVNQNSYLSWYQLKQGQPPKLLLYGASIRESWVPDRFTGSGSGTDFTLTISNVHVEDLAVYYCQHNHGSFLPYTFGGGTKLEIK", "modifications": "Isolated antibody fragment"}}, "key": {"[1]": {"system": "cancer cell lines", "assay": "IHC staining on FFPE cell line array", "type": "cell-based", "conditions": "gastric, lung, colorectal and pancreatic cancer cell lines", "protocol": "(§1) TMA slides containing FFPE tissues were first heated in an oven at 60° C. for 30 min to remove any solvents. The slides were then dewaxed and re-hydrated through sequential immersion in Histoclear (2×), 100% ethanol (2×), 95% ethanol, 70% ethanol, and finally in DI water.\n(§2) Heat-induced epitope retrieval was done in a solution containing 10 mM Tris Base, 1 mM EDTA, 0.05% Tween 20 at pH 9.0, and heated at 95° C. for 20 min. The container with the antigen retrieval solution and slides was then removed and allowed to cool to room temperature for an additional 20 min. The slides were then washed in DI water. Endogenous peroxidase activity was then blocked by incubation of the slides with 3% H2O2 in PBS for 30 min at room temperature. The slides were washed in DI water, followed by a blocking step with 10% normal goat serum in PBS for 30 min.\nThe slides were then incubated with GR6A04 at 5 μg/mL in blocking solution overnight at 4° C. The slides were then washed an incubated with a polymer-based anti-mouse secondary antibody conjugated with HRP (DAKO, USA) for 30 min at room temperature, and developed with the recommended DAB chromogen substrate solution for 2 min, and counterstained with Gill's Hematoxylin solution. […]"}, "[2]": {"system": "NSCLC tissue", "assay": "IHC staining on NSCLC tissue microarray with adjacent normal (LC 1001 2a)", "protocol": "as §1, §2\nThe slides were then incubated with GR6A04 at 5 μg/mL in blocking solution overnight at 4° C. The slides were then washed an incubated with a polymer-based anti-mouse secondary antibody conjugated with HRP (DAKO, USA) for 30 min at room temperature, and developed with the recommended DAB chromogen substrate solution for 2 min, and counterstained with Gill's Hematoxylin solution.\nThe stained slides were subsequently dehydrated through immersion in 50% ethanol, 70% ethanol, 90% ethanol, 100% ethanol (2×) and Histoclear (2×), before mounting with a glass cover slip. The slides were then imaged with the Zeiss AxioScan Digital Slide Scanner."}, "[3]": {"system": "NSCLC lines, GR HCC827 clones, breast cancer lines, colorectal cancer lines", "assay": "Flow cytometry binding on other cancer cell lines", "type": "cell-based", "protocol": "Cells were harvested as single cell suspensions using trypsin. 1E5 cells were used per sample, and incubated with 100 μl of mAb culture supernatant for 30 min. Cells were then washed with 1% bovine serum albumin in PBS, and further incubated with 100 μl of goat anti-mouse antibody fluorescein isothiocyanate (FITC)-conjugated (1:500, DAKO, Denmark) for 15 min at 4° C. in the dark. Cells were again washed and resuspended in 200 μL of 1% BSA/PBS for analysis on Guava® easy Cyte 8HT Benchtop Flow Cytometer (Merck Millipore, USA). For interrogation of […] binding, cells were fixed with 4% PFA/PBS (Affymetrix, USA) at room temperature for 10 min, washed in PBS, and permeabilised with 0.1% triton/PBS for 5 min at room temperature, before proceeding with incubation with mAb supernatant/primary antibody. For staining with propidium iodide, PI was added to a final concentration of 5 μg/mL for 5 min just prior to analysis by the flow cytometer."}, "[4]": {"molecular_target": "T1, CEACAM6 (Homo sapiens, UniProt P40199)", "T1 construct": "20 μg of PC-9 membrane protein extract was first denatured; endogenous in cells; host or cells: PC-9 cells", "T1 sequence (P40199 35-320)": "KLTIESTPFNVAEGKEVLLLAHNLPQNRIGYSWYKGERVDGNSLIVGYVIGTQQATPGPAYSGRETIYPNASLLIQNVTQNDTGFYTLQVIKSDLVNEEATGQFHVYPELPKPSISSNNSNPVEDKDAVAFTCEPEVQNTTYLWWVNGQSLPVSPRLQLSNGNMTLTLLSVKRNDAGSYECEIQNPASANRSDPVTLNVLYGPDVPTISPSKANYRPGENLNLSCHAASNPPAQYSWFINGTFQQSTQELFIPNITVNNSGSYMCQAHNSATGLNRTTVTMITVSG", "assay": "Western blot / flow cytometry binding after PNGase or Tunicamycin treatment", "conditions": "for binding to the antigen band after PNGase treatment: Western blot, PC-9 lysate, N-glycans removed", "protocol": "Membrane proteins were extracted from PC-9 cell pellets using the Membrane Protein Extraction Kit (BioVision, USA). Briefly, cell pellets of 5E7 cells were resuspended in 1 mL of Homogenize Buffer and cell membranes broken in a dounce homogenizer. This was transferred into an Eppendorf tube and centrifuged at 700×g for 10 min at 4° C. to remove cell debris. The supernatant was transferred to a new Eppendorf tube and centrifuged at 12,000×g for 30 min at 4° C. to pellet the membrane. The membrane was finally resuspended in 500 μl of 1×Cell Lysis Buffer (Cell Signaling Technology, USA) containing protease inhibitors (Pierce ThermoScientific, USA). The membrane protein solution was clarified with by centrifugation at 15,000×g for 5 min at 4° C., to remove any insoluble proteins. Protein was quantified using the Pierce […] Protein Assay Reagent.\nPC-9 membrane protein extracts, or IP products were denatured by in protein loading dye containing SDS at a final concentration of 1%, and heated at 95° C. for 5 min. The sample was then loaded into pre-cast gradient gel (NuPAGE 4-12% gradient gel, Invitrogen), and separated by SDS-PAGE running MOPS Running Buffer (NuPAGE Invitrogen, USA). After gel electrophoresis, the resolved proteins were transferred onto a polyvinylidene fluoride (PVDF) membrane (BioRad, USA) in a transfer buffer containing 20% methanol, 10% Tris-Glycine in DI water at constant voltage of 110V for 90 min.\nThe membrane was then blocked with 5% milk prepared in PBS/0.1% Tween-20 (PBS-T) for 30 min at room temperature. The membrane was then washed in PBS-T, followed by overnight incubation of GR6A04 at 2 μg/mL in 2.5% milk at 4° C. Subsequently, the membrane was washed in PBS-T, before incubation with goat anti-mouse secondary antibodies horseradish peroxidase-conjugated (1:10000, Dako) for 1 hour at room temperature. […]\nPNGase digestion was carried out according to manufacturer's protocol (New England Biolabs). […] Digested proteins were subsequently analysed by Western blotting as described above. […]"}}}
{"molecule": "B1", "values": [{"measurement": "IHC reactivity on FFPE cell line array", "setting": "[1]", "result": "reactive"}, {"measurement": "positive staining adenocarcinoma (cores positive/total)", "setting": "[2]; LC 1001 2a", "result": "9/18"}, {"measurement": "positive staining squamous (cores positive/total)", "setting": "[2]; LC 1001 2a", "result": "4/27"}, {"measurement": "staining of paired adjacent normal tissue", "setting": "[2]; LC 1001 2a", "result": "did not have any positive staining"}, {"measurement": "staining of paired adjacent normal tissue", "setting": "[2]; LC 1001 2a, listed as GR 6A04", "result": "negative staining"}, {"measurement": "positive stained lung adenocarcinoma cores", "setting": "[2]; focused NSCLC TMA", "result": 50, "unit": "%"}, {"measurement": "positive stained squamous cell cancer cores", "setting": "[2]; focused NSCLC TMA", "result": 15, "unit": "%"}, {"measurement": "GR HCC827 clones with binding", "setting": "[3]", "result": "2 of 6"}, {"measurement": "breast cancer lines with reactivity", "setting": "[3]", "result": "3 of 13"}, {"measurement": "colorectal cancer lines with reactivity", "setting": "[3]", "result": "1 of 2"}, {"measurement": "NSCLC lines with partial binding", "setting": "[3]; A549 and Calu-3 positive", "result": "2 of 4"}, {"measurement": "binding after PNGase and Tunicamycin treatment", "setting": "[4]; PNGase digestion, Tunicamycin N-glycosylation inhibitor", "result": "affected"}, {"measurement": "binding to the antigen band after PNGase treatment", "setting": "[4]", "result": "abolished binding"}, {"measurement": "binding to the antigen band after PNGase treatment", "setting": "[4]; listed as GR 6A04", "result": "abolished"}]}
